According to patent US20130131319A1 (Chugai, published 2013):

Columns and labels:
[1] = biological target: T1, soluble human plexin A1 (hsPlexin A1) (human, UniProt Q9UIW2 27-1243); assay: Biacore, antibody on protein A/G, hsPlexin A1 analyte, 37C, pH 6.0
T1 construct: range 27-1243
Protocol: (§1) Assay was carried out using 10 mmol/l ACES/150 mmol/l NaCl containing 0.05% Surfactant P20 (pH 7.4 and pH 6.0) as a running buffer. […] Assays were carried out at 37 degrees C. The assay results were analyzed using Biacore T100 Evaluation Software (GE Healthcare), and the association rate constant, ka (1/Ms), and the dissociation rate constant, kd (1/s), were calculated from the assay results. Then the KD (M) was calculated from ka and kd (Table 15). Furthermore, the pH-dependent binding was evaluated to calculate the KD ratio between pH 7.4 and pH 6.0 for each antibody.

[2] = biological target: T1, soluble human plexin A1 (hsPlexin A1); assay: Biacore, antibody on protein A/G, hsPlexin A1 analyte, 37C, pH 7.4
Protocol: as §1

human IL-6 (TORAY) [3] = biological target: T2, human IL-6 (TORAY) (human, UniProt P05231 30-212, limits assumed); assay: Biacore, antibody on protein A/G, IL-6 analyte, 37C, pH 5.5
T2 construct: also called hIL-6
Protocol: (§2) Assay was carried out using 10 mmol/l ACES/150 mmol/l NaCl containing 0.05% Surfactant P20 (pH 7.4 and pH 6.0) as a running buffer. After antibodies were bound to recombinant proteinA/G (Thermo Scientific) immobilized on sensor chips using an amino-coupling method, appropriate concentrations of human IL-6 (TORAY) as an analyte were injected. Assays were carried out at 37 degrees C. The assay results were analyzed using Biacore T100 Evaluation Software (GE Healthcare), and the association rate constant, ka (1/Ms), and the dissociation rate constant, kd (1/s), were calculated from the assay results. […] Furthermore, the pH-dependent binding was evaluated to calculate the KD ratio between pH 7.4 and pH 6.0 for each antibody.

human IL-6 (TORAY) [4] = biological target: T2, human IL-6 (TORAY); assay: Biacore, antibody on protein A/G, IL-6 analyte, 37C, pH 7.4
Protocol: as §2

[5] = biological target: T3, soluble human FcRn (complex of FcRn and beta2-microglobulin) (human, UniProt P55899 24-297; P61769 21-119); assay: Biacore steady-state, antibody immobilized, pH 6.0, 25C
T3 construct: Secreted from HEK293H
T3 sequence (P55899 24-297 limits assumed, chain 1 of 2): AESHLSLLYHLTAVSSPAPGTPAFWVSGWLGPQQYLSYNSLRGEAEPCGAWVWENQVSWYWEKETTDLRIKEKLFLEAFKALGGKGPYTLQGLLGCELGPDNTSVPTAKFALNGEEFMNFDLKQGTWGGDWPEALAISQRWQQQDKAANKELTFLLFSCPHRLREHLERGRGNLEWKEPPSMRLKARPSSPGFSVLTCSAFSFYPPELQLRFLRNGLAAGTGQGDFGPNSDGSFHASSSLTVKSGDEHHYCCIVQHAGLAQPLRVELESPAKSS
T3 sequence (P61769 21-119 limits assumed, chain 2 of 2): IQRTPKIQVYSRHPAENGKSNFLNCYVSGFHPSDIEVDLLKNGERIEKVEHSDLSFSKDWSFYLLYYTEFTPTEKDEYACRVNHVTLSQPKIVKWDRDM
Protocol: The antibodies were tested as a test substance after direct immobilization onto Series S Sensor Chip CM5. Using an amino-coupling kit according to the supplier's instruction manual, the antibodies were immobilized onto Sensor Chip so as to secure an immobilization amount of 500 RU. The running buffer used was 50 mmol/l Na-phosphate/150 mmol/l NaCl containing 0.05% (v/v %) Surfactant P20 (pH 6.0).
With the prepared sensor chips, assay was carried out using as a running buffer, 50 mmol/l Na-phosphate/150 mmol/l NaCl containing 0.05% Surfactant P20 (pH 6.0) or 50 mmol/l Na-phosphate/150 mmol/l NaCl containing 0.05% Surfactant P20 (pH 7.4). Assays were carried out exclusively at 25 degrees C. The diluted human FcRn solutions and running buffer as a reference solution were injected at a flow rate of 5 microliter/min for ten minutes to allow for human FcRn to interact with the antibody on the chip. Next, the running buffer was injected at a flow rate of 5 microliter/min for one minute to monitor the dissociation of FcRn. […]
The assay results were analyzed using Biacore T100 Evaluation Software (Ver. 2.0.1). By a steady-state affinity method, the dissociation constant (KD) was calculated from the assay results at six different FcRn concentrations.

[6] = biological target: T3, soluble human FcRn (complex of FcRn and …); assay: Biacore pH 7.0
Protocol: (§3) The binding between antibody and human FcRn was kinetically analyzed using Biacore T100 (GE Healthcare). […] An appropriate amount of protein L (ACTIGEN) was immobilized onto Sensor chip CM4 (GE Healthcare) by the amino coupling method, and the chip was allowed to capture an antibody of interest. Then, diluted FcRn solutions and running buffer (as a reference solution) were injected to allow human FcRn to interact with the antibody captured on the sensor chip. The running buffer used comprised 50 mmol/l sodium phosphate, 150 mmol/l NaCl, and 0.05% (w/v) Tween20 (pH 7.0). FcRn was diluted using each buffer. The chip was regenerated using 10 mmol/l glycine-HCl (pH 1.5). Assays were carried out exclusively at 25 degrees C. The association rate constant ka (1/Ms) and dissociation rate constant kd (1/s), both of which are kinetic parameters, were calculated based on the sensorgrams obtained in the assays, and KD (M) of each antibody for human FcRn was determined from these values. Each parameter was calculated using Biacore T100 Evaluation Software (GE Healthcare).

[7] = biological target: T3, soluble human FcRn (complex of FcRn and …); assay: Biacore pH 7.0; remark: listed apart in the source
Protocol: as §3

[8] = biological target: T3, soluble human FcRn (complex of FcRn and …); assay: Biacore pH 7.0; remark: listed apart in the source
Protocol: as §3

T1 sequence (Q9UIW2 other isoform, or with tags, fused parts or gaps limits assumed): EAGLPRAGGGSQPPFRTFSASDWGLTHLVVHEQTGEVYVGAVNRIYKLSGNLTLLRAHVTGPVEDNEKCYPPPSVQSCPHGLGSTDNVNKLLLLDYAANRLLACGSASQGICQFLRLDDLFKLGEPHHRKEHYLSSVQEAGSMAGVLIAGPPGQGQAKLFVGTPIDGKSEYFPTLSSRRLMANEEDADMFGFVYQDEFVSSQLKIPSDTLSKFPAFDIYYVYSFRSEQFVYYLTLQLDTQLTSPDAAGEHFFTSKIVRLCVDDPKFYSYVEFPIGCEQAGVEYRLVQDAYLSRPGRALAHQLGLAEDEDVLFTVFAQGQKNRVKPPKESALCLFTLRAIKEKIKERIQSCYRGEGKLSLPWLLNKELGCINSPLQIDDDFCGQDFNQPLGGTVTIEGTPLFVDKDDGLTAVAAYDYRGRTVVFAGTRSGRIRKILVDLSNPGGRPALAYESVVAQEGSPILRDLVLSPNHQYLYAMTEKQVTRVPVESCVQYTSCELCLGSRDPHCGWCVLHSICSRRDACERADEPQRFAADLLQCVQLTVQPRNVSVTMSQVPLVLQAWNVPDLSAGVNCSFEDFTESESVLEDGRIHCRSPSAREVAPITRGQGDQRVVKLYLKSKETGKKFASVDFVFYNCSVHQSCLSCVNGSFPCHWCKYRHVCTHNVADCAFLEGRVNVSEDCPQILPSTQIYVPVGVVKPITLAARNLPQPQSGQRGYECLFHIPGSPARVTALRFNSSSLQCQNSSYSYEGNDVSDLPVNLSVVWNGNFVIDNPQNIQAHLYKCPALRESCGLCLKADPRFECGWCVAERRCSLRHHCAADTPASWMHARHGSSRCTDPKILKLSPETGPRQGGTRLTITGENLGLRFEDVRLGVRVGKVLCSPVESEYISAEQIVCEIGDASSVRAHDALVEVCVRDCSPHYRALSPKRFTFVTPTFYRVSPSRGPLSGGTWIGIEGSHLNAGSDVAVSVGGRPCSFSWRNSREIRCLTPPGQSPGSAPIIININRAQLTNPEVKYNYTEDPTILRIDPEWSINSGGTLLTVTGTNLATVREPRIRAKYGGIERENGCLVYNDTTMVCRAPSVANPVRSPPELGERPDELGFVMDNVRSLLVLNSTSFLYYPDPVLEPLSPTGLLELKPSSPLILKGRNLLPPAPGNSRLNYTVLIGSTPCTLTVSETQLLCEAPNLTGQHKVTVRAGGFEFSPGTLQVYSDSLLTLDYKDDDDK

B1: PX268-IgG1 (antibody, V domains shown)
VH: QSLEESGGDLVKPGASLTLTCTASGFSFSSNYWIYWVRQAPGKGLEWIACIYIGSDSAYYASWAKGRFTISKTSSTTVTLQMTSLTAADTATYFCARWDNSGRALKLWGPGTLVTVSS
VL: QMLTQTASPVSAAVGGTVTIKCQSSQSVADNNHLSWYQQKPGQPPKLLIYFASTLASGVSSRFKGSGSGTQFTLTISDVQCDDAATYYCLGNYDCGSADCHAFGGGTEVVVKR
notes: chimeric anti-plexin A1 antibody
[1]
  Kd: 4.4 nM
  koff: 0.00027 s⁻¹
  kon: 63000 M⁻¹ s⁻¹
[2]
  Kd: 5.4 nM
  koff: 0.00028 s⁻¹
  kon: 52000 M⁻¹ s⁻¹

B2: CLB8-IgG1 (antibody, V domains shown)
VH: EVQLVESGGKLLKPGGSLKLSCAASGFTFSSFAMSWFRQSPEKRLEWVAEISSGGSYTYYPDTVTGRFTISRDNAKNTLYLEMSSLRSEDTAMYYCARGLWGYYALDYWGQGTSVTVSS
VL: QIVLIQSPAIMSASPGEKVTMTCSASSSVSYMYWYQQKPGSSPRLLIYDTSNLASGVPVRFSGSGSGTSYSLTISRMEAEDAATYYCQQWSGYPYTFGGGTKLEIKR
notes: chimeric anti-IL-6 antibody
Human IL-6 (TORAY) [3]
  Kd: 0.18 nM
  koff: 0.00066 s⁻¹
  kon: 3.7e+06 M⁻¹ s⁻¹
Human IL-6 (TORAY) [4]
  Kd: 0.22 nM
  koff: 0.0008 s⁻¹
  kon: 3.6e+06 M⁻¹ s⁻¹

B3: H16/L13-IgG1 (antibody, V domains shown)
VH: EVQLVESGGKLLKPGGSLKLSCAASGFTFSSHAMSWFRQSPEKRLEWVAEISSGGSYTYHPHTVTGRFTISRDNAKNTLYLEMSSLRSEDTAMYYCARGLWGHYALDYWGQGTSVTVSS
VL: QIVLIQSPAIMSASPGEKVTMTCSASSSVSYMYWYQQKPGSSPRLLIYDTSHHASGVPVRFSGSGSGTSYSLTISRMEAEDAATYYCHQWSGHPYTFGGGTKLEIKR
notes: chimeric anti-IL-6 antibody, pH-dependent
Human IL-6 (TORAY) [3]
  Kd: 16 nM
  koff: 0.0059 s⁻¹
  kon: 370000 M⁻¹ s⁻¹
Human IL-6 (TORAY) [4]
  Kd: 2.2 nM
  koff: 0.0046 s⁻¹
  kon: 2.1e+06 M⁻¹ s⁻¹

B4: Fv4-IgG1 (antibody)
heavy: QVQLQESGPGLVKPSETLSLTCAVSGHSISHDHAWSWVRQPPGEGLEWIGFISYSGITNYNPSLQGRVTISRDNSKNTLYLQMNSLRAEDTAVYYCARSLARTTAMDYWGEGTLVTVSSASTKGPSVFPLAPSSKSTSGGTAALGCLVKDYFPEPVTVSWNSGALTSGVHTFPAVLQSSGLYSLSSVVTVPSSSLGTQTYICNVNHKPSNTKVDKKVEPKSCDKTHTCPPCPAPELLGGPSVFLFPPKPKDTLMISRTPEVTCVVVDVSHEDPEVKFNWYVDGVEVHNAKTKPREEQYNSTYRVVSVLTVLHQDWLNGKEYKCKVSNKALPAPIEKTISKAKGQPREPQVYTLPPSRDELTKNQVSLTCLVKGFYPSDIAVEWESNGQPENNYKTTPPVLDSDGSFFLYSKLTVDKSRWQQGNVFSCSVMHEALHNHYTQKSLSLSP
light: DIQMTQSPSSLSASVGDSVTITCQASTDISSHLNWYQQKPGKAPELLIYYGSHLLSGVPSRFSGSGSGTDFTFTISSLEAEDAATYYCGQGNRLPYTFGQGTKVEIERTVAAPSVFIFPPSDEQLKSGTASVVCLLNNFYPREAKVQWKVDNALQSGNSQESVTEQDSKDSTYSLSSTLTLSKADYEKHKVYACEVTHQGLSSPVTKSFNRGEC
notes: VH3-IgG1 and VL3-CK; copies: 2 + 2
[5]
  Kd: 1990 nM

B5: PX141-IgG1 (antibody, V domains shown)
VH: QEQLEESGGGLVKPEGSLTLTCKASGFDFSSYYYMCWVRQAPGKGLEWIGCIVTGSYGRSWYASWAKGRFTITRSTSLNTVTLQLNSLTAADTATYFCARDPFVIASSHYQNLWGPGTLVTVSS
VL: ALVMTQTPSPVSAAVGGTVTISCQSSPNIYNNYLSWYQQKPGQPPKLLIYRASNLETGVPSRFSGSGSGTQFTLTISDVQCDDAATYYCAGYKSYDNDDNAFGGGTEVVVKR
notes: chimeric anti-plexin A1 antibody, pH-dependent
[1]
  Kd: 63 nM
  koff: 0.0049 s⁻¹
  kon: 79000 M⁻¹ s⁻¹
[2]
  Kd: 4.2 nM
  koff: 0.00064 s⁻¹
  kon: 150000 M⁻¹ s⁻¹

B6: IgG1-F162 (antibody)
heavy: QVQLQESGPGLVKPSETLSLTCAVSGHSISHDHAWSWVRQPPGEGLEWIGFISYSGITNYNPSLQGRVTISRDNSKNTLYLQMNSLRAEDTAVYYCARSLARTTAMDYWGEGTLVTVSSASTKGPSVFPLAPSSKSTSGGTAALGCLVKDYFPEPVTVSWNSGALTSGVHTFPAVLQSSGLYSLSSVVTVPSSSLGTQTYICNVNHKPSNTKVDKKVEPKSCDKTHTCPPCPAPELLGGPSVFLFPPKPKDTLWISRTPEVTCVVVDVSHEDPEVKFNWYVDGVEVHNAKTKPREEQYNSTYRVVSVLTVLHQDWLNGKEYKCKVSNKALPAPIEKTISKAKGQPREPQVYTLPPSRDELTKNQVSLTCLVKGFYPSDIAVEWESNGQPENNYKTTPPVLDSDGSFFLYSKLTVDKSRWQQGNVFSCSVYHEALHYHYTQKSLSLSP
light: not shown
notes: copies: 2 + 2
[6]
  Kd: 170 nM

B7: IgG1-F163 (antibody)
heavy: QVQLQESGPGLVKPSETLSLTCAVSGHSISHDHAWSWVRQPPGEGLEWIGFISYSGITNYNPSLQGRVTISRDNSKNTLYLQMNSLRAEDTAVYYCARSLARTTAMDYWGEGTLVTVSSASTKGPSVFPLAPSSKSTSGGTAALGCLVKDYFPEPVTVSWNSGALTSGVHTFPAVLQSSGLYSLSSVVTVPSSSLGTQTYICNVNHKPSNTKVDKKVEPKSCDKTHTCPPCPAPELLGGPSVFLFPPKPKDTLWISRTPEVTCVVVDVSHEDPEVKFNWYVDGVEVHNAKTKPREEQYNSTYRVVSVLTVLHQDWLNGKEYKCKVSNKALPAPIEKTISKAKGQPREPQVYTLPPSRDELTKNQVSLTCLVKGFYPSDIAVEWESNGQPENNYKTTPPVLDSDGSFFLYSKLTVDKSRWQQGNVFSCSVFHEALHYHYTQKSLSLSP
light: not shown
notes: copies: 2 + 2
[6]
  Kd: 350 nM

B8: IgG1-F379 (antibody)
heavy: QVQLQESGPGLVKPSETLSLTCAVSGHSISHDHAWSWVRQPPGEGLEWIGFISYSGITNYNPSLQGRVTISRDNSKNTLYLQMNSLRAEDTAVYYCARSLARTTAMDYWGEGTLVTVSSASTKGPSVFPLAPSSKSTSGGTAALGCLVKDYFPEPVTVSWNSGALTSGVHTFPAVLQSSGLYSLSSVVTVPSSSLGTQTYICNVNHKPSNTKVDKKVEPKSCDKTHTCPPCPAPELLGGPKVFLFPPKPKDTLWISREPEVTCVVVDVSHEDPEVKFNWYVDGVEVHNAKTKPREEQYNSTYRVVSVLTPLHADWLNGKEYKCKVSNKALPAPIEKTISKAKGQPREPQVYTLPPSRDELTKNQVSLTCLVKGFYPSDIAVEWESNGQPENNYKTTPPVLDSDGSFFLYSKLTVDKSRWQQGNVFSCSVYHEALHYHYTQKSLSLSP
light: not shown
notes: copies: 2 + 2
[7]
  Kd: 10 nM

B9: IgG1-F308 (antibody)
heavy: QVQLQESGPGLVKPSETLSLTCAVSGHSISHDHAWSWVRQPPGEGLEWIGFISYSGITNYNPSLQGRVTISRDNSKNTLYLQMNSLRAEDTAVYYCARSLARTTAMDYWGEGTLVTVSSASTKGPSVFPLAPSSKSTSGGTAALGCLVKDYFPEPVTVSWNSGALTSGVHTFPAVLQSSGLYSLSSVVTVPSSSLGTQTYICNVNHKPSNTKVDKKVEPKSCDKTHTCPPCPAPELLGGPKVFLFPPKPKDTLWISRTPEVTCVVVDVSHEDPEVKFNWYVDGVEVHNAKTKPREEQYNSTYRVVSVLTPLHQDWLNGKEYKCKVSNKALPAPIEKTISKAKGQPREPQVYTLPPSRDELTKNQVSLTCLVKGFYPSDIAVEWASNGQPENNYKTTPPVLDSDGSFFLYSKLTVDKSRWQQGNVFSCSVYHEALHYHYTQKSLSLSP
light: not shown
notes: copies: 2 + 2
[8]
  Kd: 18 nM

B10: IgG1-F311 (antibody)
heavy: QVQLQESGPGLVKPSETLSLTCAVSGHSISHDHAWSWVRQPPGEGLEWIGFISYSGITNYNPSLQGRVTISRDNSKNTLYLQMNSLRAEDTAVYYCARSLARTTAMDYWGEGTLVTVSSASTKGPSVFPLAPSSKSTSGGTAALGCLVKDYFPEPVTVSWNSGALTSGVHTFPAVLQSSGLYSLSSVVTVPSSSLGTQTYICNVNHKPSNTKVDKKVEPKSCDKTHTCPPCPAPELLGGPKVFLFPPKPKDTLWISRTPEVTCVVVDVSHEDPEVKFNWYVDGVEVHNAKTKPREEQYNSTYRVVSVLTPLHQDWLNGKEYKCKVSNKALPAPIEKTISKAKGQPREPQVYTLPPSRDELTKNQVSLTCLVKGFYPSDIAVEWESNGQPENNYKTTPPVLDSDGSFFLYSKLTVDKSRWQQGNVFSCSVFHEALHYHYTQKSLSLSP
light: not shown
notes: copies: 2 + 2
[8]
  Kd: 29 nM

B11: IgG1-F403 (antibody)
heavy: QVQLQESGPGLVKPSETLSLTCAVSGHSISHDHAWSWVRQPPGEGLEWIGFISYSGITNYNPSLQGRVTISRDNSKNTLYLQMNSLRAEDTAVYYCARSLARTTAMDYWGEGTLVTVSSASTKGPSVFPLAPSSKSTSGGTAALGCLVKDYFPEPVTVSWNSGALTSGVHTFPAVLQSSGLYSLSSVVTVPSSSLGTQTYICNVNHKPSNTKVDKKVEPKSCDKTHTCPPCPAPELLGGPSVFLFPPKPKDTLMISRTVEVTCVVVDVSHEDPEVKFNWYVDGVEVHNAKTKPREEQYNSTYRVVSVLAVLHQDWLNGKEYKCKVSNKALPAPIEKTISKAKGQPREPQVYTLPPSRDELTKNQVSLTCLVKGFYPSDIAVEWESNGQPENNYKTTPPVLDSDGSFFLYSKLTVDKSRWQQGNVFSCSVEHEALHWHYTQKSLSLSP
light: not shown
notes: M428E as printed; may be a misprint of M428L; copies: 2 + 2
[7]
  Kd: 51 nM

B12: IgG1-F376 (antibody)
heavy: QVQLQESGPGLVKPSETLSLTCAVSGHSISHDHAWSWVRQPPGEGLEWIGFISYSGITNYNPSLQGRVTISRDNSKNTLYLQMNSLRAEDTAVYYCARSLARTTAMDYWGEGTLVTVSSASTKGPSVFPLAPSSKSTSGGTAALGCLVKDYFPEPVTVSWNSGALTSGVHTFPAVLQSSGLYSLSSVVTVPSSSLGTQTYICNVNHKPSNTKVDKKVEPKSCDKTHTCPPCPAPELLGGPKVFLFPPKPKDTLYISREPEVTCVVVDVSHEFPEVKFNWYVDGVEVHEAKTKPREEQYNSTYRVVSVLTPLHQDWLNGKEYKCKVSNKALPAPIEKTISKAKGQPREPQVYTLPPSRDELTKNQVSLTCLVKGFYPSDIAVEWESNGQPENNYKTTPPVLDSDGSFFLYSKLTVDKSRWQQGNVFSCSVMHEALHYHYTQKSLSLSP
light: not shown
notes: copies: 2 + 2
[7]
  Kd: 9.5 nM

B13: IgG1-F292 (antibody)
heavy: QVQLQESGPGLVKPSETLSLTCAVSGHSISHDHAWSWVRQPPGEGLEWIGFISYSGITNYNPSLQGRVTISRDNSKNTLYLQMNSLRAEDTAVYYCARSLARTTAMDYWGEGTLVTVSSASTKGPSVFPLAPSSKSTSGGTAALGCLVKDYFPEPVTVSWNSGALTSGVHTFPAVLQSSGLYSLSSVVTVPSSSLGTQTYICNVNHKPSNTKVDKKVEPKSCDKTHTCPPCPAPELLGGPKVFLFPPKPKDTLYISRTPEVTCVVVDVSHEDPEVKFNWYVDGVEVHNAKTKPREEQYNSTYRVVSVLTPLHQDWLNGKEYKCKVSNKALPAPIEKTISKAKGQPREPQVYTLPPSRDELTKNQVSLTCLVKGFYPSDIAVEWASNGQPENNYKTTPPVLDSDGSFFLYSKLTVDKSRWQQGNVFSCSVIHEALHYHYTQKSLSLSP
light: not shown
notes: copies: 2 + 2
[8]
  Kd: 20 nM
